Reference: patent US20250388702A1 (Dana-Farber, published 2025)
Each block holds one binder with its values, some of them ahead of it.

B2: KIR2DL3 (receptor, UniProt P43628 22-341, looked up)
chain: HEGVHRKPSLLAHPGPLVKSEETVILQCWSDVRFQHFLLHREGKFKDTLHLIGEHHDGVSKANFSIGPMMQDLAGTYRCYGSVTHSPYQLSAPSDPLDIVITGLYEKPSLSAQPGPTVLAGESVTLSCSSRSSYDMYHLSREGEAHERRFSAGPKVNGTFQADFPLGPATHGGTYRCFGSFRDSPYEWSNSSDPLLVSVTGNPSNSWPSPTEPSSETGNPRHLHVLIGTSVVIILFILLLFFLLHRWCCNKKNAVVMDQEPAGNRTVNREDSDEQDPQEVTYAQLNHCVFTQRKITRPSQRPKTPPTDIIVYTELPNAEP
notes: whole, on cells
B3: KIR2DS5 (receptor, UniProt Q14953 22-304, looked up)
chain: HEGFRRKPSLLAHPGPLVKSEETVILQCWSDVMFEHFLLHREGTFNHTLRLIGEHIDGVSKGNFSIGRMTQDLAGTYRCYGSVTHSPYQLSAPSDPLDIVITGLYEKPSLSAQPGPTVLAGESVTLSCSSRSSYDMYHLSREGEAHERRLPAGPKVNRTFQADFPLDPATHGGTYRCFGSFRDSPYEWSKSSDPLLVSVTGNSSNSWPSPTEPSSETGNPRHLHVLIGTSVVKLPFTILLFFLLHRWCSNKKNASVMDQGPAGNRTVNREDSDEQDHQEVSYA
notes: whole, on cells

How the values were obtained:
KIR3DL1 = target: T1, KIR3DL1 (UniProt P43629 22-444, limits assumed); test: HEK293 cell microarray
T1 construct: whole, on cells
T1 sequence (P43629 22-444 limits assumed): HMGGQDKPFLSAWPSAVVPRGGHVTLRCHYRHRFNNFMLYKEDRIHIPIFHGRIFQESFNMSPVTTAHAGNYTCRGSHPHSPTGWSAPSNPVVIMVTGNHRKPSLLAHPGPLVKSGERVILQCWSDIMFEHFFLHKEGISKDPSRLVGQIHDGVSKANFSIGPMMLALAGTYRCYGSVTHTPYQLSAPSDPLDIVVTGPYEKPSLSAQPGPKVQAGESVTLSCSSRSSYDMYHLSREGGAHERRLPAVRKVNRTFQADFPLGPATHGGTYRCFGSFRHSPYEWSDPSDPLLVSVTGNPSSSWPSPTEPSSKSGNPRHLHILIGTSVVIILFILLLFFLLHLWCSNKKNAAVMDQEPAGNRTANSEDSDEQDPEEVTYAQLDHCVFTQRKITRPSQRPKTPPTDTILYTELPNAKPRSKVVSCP
Experimental: (§1) Replicate microarray slides expressing a complete KIR family cDNA panel were fixed and blocked with buffer containing PBS/0.5% BSA and incubated for 1 hour at room temperature with individual KIR3DL3 mAb hybridoma supernatants at 1:5, 1:25 and 1:250 dilutions in PBS/0.1% BSA. Cell arrays were washed with PBS and incubated for 1 hour at room temperature in PBS/0.1% BSA containing AF647-conjugated goat anti-mouse IgG (H+L) (Life Technologies, A21235). Slides were washed with PBS, dried, and imaged for ZsGreen1 and AF647 fluorescence.
as §1, with “In Table 4, replicate” for “Replicate”, “the” for “a complete”, “panel (as in FIG. 1A, FIG. 2B, and FIG. 2C)” for “panel”

KIR3DL2 = target: T2, KIR3DL2 (UniProt P43630 22-455, limits assumed); test: HEK293 cell microarray
T2 construct: whole, on cells
T2 sequence (P43630 22-455 limits assumed): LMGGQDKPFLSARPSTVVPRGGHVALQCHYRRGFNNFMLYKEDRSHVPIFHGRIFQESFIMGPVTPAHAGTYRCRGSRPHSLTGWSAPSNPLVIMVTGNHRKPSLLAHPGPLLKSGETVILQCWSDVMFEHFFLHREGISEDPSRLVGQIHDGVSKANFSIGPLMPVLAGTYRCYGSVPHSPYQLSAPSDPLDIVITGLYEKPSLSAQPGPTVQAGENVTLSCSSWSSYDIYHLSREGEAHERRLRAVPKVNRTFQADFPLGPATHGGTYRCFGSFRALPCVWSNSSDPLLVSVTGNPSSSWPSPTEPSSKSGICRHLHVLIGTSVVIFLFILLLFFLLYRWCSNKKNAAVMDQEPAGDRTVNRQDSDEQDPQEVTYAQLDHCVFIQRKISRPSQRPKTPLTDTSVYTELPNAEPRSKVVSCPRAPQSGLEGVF
Experimental: as §1
as §1, with “In Table 4, replicate” for “Replicate”, “the” for “a complete”, “panel (as in FIG. 1A, FIG. 2B, and FIG. 2C)” for “panel”

KIR2DL1 = target: T3, KIR2DL1 (UniProt P43626 22-348, limits assumed); test: HEK293 cell microarray
T3 construct: whole, on cells
T3 sequence (P43626 22-348 limits assumed): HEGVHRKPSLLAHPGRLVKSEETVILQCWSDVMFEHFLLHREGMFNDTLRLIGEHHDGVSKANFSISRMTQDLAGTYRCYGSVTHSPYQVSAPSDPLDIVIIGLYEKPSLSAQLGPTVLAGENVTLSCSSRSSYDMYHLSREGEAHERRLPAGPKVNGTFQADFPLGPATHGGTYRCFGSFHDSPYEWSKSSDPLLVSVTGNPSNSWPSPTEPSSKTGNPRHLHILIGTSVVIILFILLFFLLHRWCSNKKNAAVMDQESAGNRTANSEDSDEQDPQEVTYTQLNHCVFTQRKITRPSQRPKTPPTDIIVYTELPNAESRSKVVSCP
Experimental: as §1
as §1, with “In Table 4, replicate” for “Replicate”, “the” for “a complete”, “panel (as in FIG. 1A, FIG. 2B, and FIG. 2C)” for “panel”

KIR2DL2 = target: T4, KIR2DL2 (UniProt P43627 22-348, limits assumed); test: HEK293 cell microarray
T4 construct: whole, on cells
T4 sequence (P43627 22-348 limits assumed): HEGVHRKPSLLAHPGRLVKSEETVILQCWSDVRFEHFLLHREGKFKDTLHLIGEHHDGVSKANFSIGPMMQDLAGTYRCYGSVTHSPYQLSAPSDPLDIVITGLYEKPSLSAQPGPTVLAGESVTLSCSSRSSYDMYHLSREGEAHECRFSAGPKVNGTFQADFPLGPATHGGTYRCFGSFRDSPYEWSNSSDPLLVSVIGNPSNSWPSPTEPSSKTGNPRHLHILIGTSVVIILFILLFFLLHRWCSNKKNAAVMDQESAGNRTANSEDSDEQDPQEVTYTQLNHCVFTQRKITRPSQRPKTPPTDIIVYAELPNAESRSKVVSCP
Experimental: as §1
as §1, with “In Table 4, replicate” for “Replicate”, “the” for “a complete”, “panel (as in FIG. 1A, FIG. 2B, and FIG. 2C)” for “panel”

KIR2DL3 = target: B2; test: HEK293 cell microarray
Experimental: as §1
as §1, with “In Table 4, replicate” for “Replicate”, “the” for “a complete”, “panel (as in FIG. 1A, FIG. 2B, and FIG. 2C)” for “panel”

KIR2DL4 = target: T5, KIR2DL4 (UniProt Q99706 22-377, limits assumed); test: HEK293 cell microarray
T5 construct: whole, on cells
T5 sequence (Q99706 22-377 limits assumed): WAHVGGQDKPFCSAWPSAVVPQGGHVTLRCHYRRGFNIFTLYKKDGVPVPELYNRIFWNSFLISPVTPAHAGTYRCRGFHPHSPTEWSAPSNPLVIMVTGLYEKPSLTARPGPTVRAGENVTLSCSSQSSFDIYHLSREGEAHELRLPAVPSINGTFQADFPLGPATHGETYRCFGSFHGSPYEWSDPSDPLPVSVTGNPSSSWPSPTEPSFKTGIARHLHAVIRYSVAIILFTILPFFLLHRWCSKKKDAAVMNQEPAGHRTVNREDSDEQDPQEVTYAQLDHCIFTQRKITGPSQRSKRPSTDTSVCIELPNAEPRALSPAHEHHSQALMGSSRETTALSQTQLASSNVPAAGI
Experimental: as §1
as §1, with “In Table 4, replicate” for “Replicate”, “the” for “a complete”, “panel (as in FIG. 1A, FIG. 2B, and FIG. 2C)” for “panel”

KIR2DS1 = target: T6, KIR2DS1 (UniProt Q14954 22-304, limits assumed); test: HEK293 cell microarray
T6 construct: whole, on cells
T6 sequence (Q14954 22-304 limits assumed): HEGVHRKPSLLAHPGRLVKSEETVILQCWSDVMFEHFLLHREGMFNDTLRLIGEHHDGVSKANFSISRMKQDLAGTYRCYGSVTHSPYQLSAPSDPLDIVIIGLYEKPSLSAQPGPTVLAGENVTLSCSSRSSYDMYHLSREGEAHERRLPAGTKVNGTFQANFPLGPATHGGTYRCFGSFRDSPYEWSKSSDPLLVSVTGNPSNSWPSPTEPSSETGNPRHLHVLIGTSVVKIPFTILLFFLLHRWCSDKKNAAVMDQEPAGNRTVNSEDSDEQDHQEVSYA
Experimental: as §1
as §1, with “In Table 4, replicate” for “Replicate”, “the” for “a complete”, “panel (as in FIG. 1A, FIG. 2B, and FIG. 2C)” for “panel”

KIR2DS2 = target: T7, KIR2DS2 (UniProt P43631 22-304, limits assumed); test: HEK293 cell microarray
T7 construct: whole, on cells
T7 sequence (P43631 22-304 limits assumed): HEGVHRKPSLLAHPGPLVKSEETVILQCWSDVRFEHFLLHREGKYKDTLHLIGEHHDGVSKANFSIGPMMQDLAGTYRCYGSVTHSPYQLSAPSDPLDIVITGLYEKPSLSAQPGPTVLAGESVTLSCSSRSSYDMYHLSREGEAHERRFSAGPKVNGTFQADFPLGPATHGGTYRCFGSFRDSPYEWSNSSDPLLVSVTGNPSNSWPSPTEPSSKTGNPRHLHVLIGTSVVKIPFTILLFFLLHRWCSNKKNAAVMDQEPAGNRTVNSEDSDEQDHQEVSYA
Experimental: as §1
as §1, with “In Table 4, replicate” for “Replicate”, “the” for “a complete”, “panel (as in FIG. 1A, FIG. 2B, and FIG. 2C)” for “panel”

KIR2DS3 = target: T8, KIR2DS3 (UniProt Q14952 22-304, limits assumed); test: HEK293 cell microarray
T8 construct: whole, on cells
Experimental: as §1
as §1, with “In Table 4, replicate” for “Replicate”, “the” for “a complete”, “panel (as in FIG. 1A, FIG. 2B, and FIG. 2C)” for “panel”

KIR2DS5 = target: B3; test: HEK293 cell microarray
Experimental: as §1
as §1, with “In Table 4, replicate” for “Replicate”, “the” for “a complete”, “panel (as in FIG. 1A, FIG. 2B, and FIG. 2C)” for “panel”

KIR3DS1 = target: T9, KIR3DS1 (UniProt Q14943 22-382, limits assumed); test: HEK293 cell microarray
T9 construct: whole, on cells
T9 sequence (Q14943 22-382 limits assumed): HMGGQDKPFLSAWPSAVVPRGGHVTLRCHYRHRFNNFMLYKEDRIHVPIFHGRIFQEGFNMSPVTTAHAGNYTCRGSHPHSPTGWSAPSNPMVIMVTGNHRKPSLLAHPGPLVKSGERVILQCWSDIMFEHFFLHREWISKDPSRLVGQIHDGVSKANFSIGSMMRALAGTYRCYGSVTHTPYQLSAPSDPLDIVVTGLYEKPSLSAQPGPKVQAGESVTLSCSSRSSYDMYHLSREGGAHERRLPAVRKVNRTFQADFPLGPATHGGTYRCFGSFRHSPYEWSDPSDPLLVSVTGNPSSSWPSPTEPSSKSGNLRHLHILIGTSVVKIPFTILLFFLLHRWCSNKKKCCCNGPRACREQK
Experimental: as §1
as §1, with “In Table 4, replicate” for “Replicate”, “the” for “a complete”, “panel (as in FIG. 1A, FIG. 2B, and FIG. 2C)” for “panel”

[1] = target: T10, Human HHLA2-mIgG2a fusion protein (human; mouse, UniProt Q9UM44 23-344, limits assumed); test: cell microarray on transfected HEK293 cells, HHLA2-mIgG2a probe, AF647 anti-mouse IgG detection
T10 construct: also called HHLA2-Ig; HHLA2-mouse IgG2a; not shown: mutated at IgG2a L235E, E318A, K320A, K322A
T10 sequence: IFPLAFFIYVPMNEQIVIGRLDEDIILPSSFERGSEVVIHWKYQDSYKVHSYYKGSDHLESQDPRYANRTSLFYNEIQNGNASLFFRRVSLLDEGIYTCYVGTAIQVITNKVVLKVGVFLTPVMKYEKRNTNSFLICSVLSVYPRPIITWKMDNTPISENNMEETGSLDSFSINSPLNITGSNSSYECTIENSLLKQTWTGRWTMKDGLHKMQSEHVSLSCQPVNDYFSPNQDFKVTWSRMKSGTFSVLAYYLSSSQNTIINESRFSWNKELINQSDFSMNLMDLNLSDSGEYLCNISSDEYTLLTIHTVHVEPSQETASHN
Experimental: A library of ˜5500 full length cDNA clones covering more than 3,500 different plasma membrane proteins was arrayed in duplicate across 13 microarray slides (“slide sets”). Human HEK293 cells were grown above the cDNA clones and reverse-transfected. An expression vector (pIRES-hEGFR-IRES-ZsGreen1) was spotted in quadruplicate on every slide and was used to ensure that a minimal threshold of transfection efficiency had been achieved or exceeded on every slide.
Two replicate slides were screened for each of the 13 slide sets. Fluorescent images were analyzed and quantitated (for transfection efficiency) using ImageQuant software (GE). A protein ‘hit’ was defined as duplicate spots showing a raised signal compared to background levels. This was achieved by visual inspection using the images gridded on the ImageQuant software.

[2] = target: T11, Human PD1, Sino Biological Cat #: HPLC-10377-H08H (human, UniProt Q15116 25-167); test: BLI (Octet RED96), antibody captured on the sensor, antigen in solution, 1:1 model
T11 construct: Bought; also called PD-1 (Octet antigen)
T11 sequence (Q15116 25-167 limits assumed): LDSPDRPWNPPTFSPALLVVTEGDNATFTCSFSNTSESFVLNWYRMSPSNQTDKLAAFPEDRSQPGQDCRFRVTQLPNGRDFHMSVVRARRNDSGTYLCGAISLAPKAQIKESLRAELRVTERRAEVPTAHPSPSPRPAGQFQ
Experimental: Binding experiments were performed on Octat Red af 25″° C. The human antibodies were loaded onto Anti-higG Fe Capture biosensors and the mouse antibodies were loaded onto Anti-migG Fe Capture biosensors both for 300 seconds. The ligand loaded sensors were dipped into a 3-fold series dilution (starting at 300 nad) of the antigens (PD-1 and KIR3DL3) for 240 seconds followed by dissociation for 400 seconds. Kinetic constanta were calculated using a monovalent (1:1) binding model Antigen: Haman PD1, Sino Biological Cat #: HPLC-10377-HOSH.

B1: KIR3DL3 mAb 574.2.1D12.1.6 (antibody, IgG2a, V domains shown)
VH: QVQLQQSGAELVRPGTSVKVSCKASGYAFNNYLIEWVKQRPGQGLEWIGVINPGSGGTNDNEKFRGKATLTADTSSSTAYMQLTSLTSDDSAVYFCARGNYYGTRDWYFDVWGAGTTVTVSS
VL: QIVLTQSPAIMSASLGARVTMTCTASSSVSSSSLHWYQQKPGSSPKLWIYSISSLASGVPARFSGSGSGTSYSLTISSLEAEDAATYYCHQYHRSPPTFGGGTKLEIK
notes: Mouse hybridoma antibody, IgG2a; only variable domains given; also called AVS-3705
binding result (KIR3DL1): no binding (tested: supernatant 1:5, 1:25, 1:250)
binding result (KIR3DL2): no binding (tested: supernatant 1:5, 1:25, 1:250)
binding result (KIR2DL1): no binding (tested: supernatant 1:5, 1:25, 1:250)
binding result (KIR2DL2): no binding (tested: supernatant 1:5, 1:25, 1:250)
binding result (KIR2DL3): no binding (tested: supernatant 1:5, 1:25, 1:250)
binding result (KIR2DL4): no binding (tested: supernatant 1:5, 1:25, 1:250)
binding result (KIR2DS1): no binding (tested: supernatant 1:5, 1:25, 1:250)
binding result (KIR2DS2): no binding (tested: supernatant 1:5, 1:25, 1:250)
binding result (KIR2DS3): no binding (tested: supernatant 1:5, 1:25, 1:250)
binding result (KIR2DS5): no binding (tested: supernatant 1:5, 1:25, 1:250)
binding result (KIR3DS1): no binding (tested: supernatant 1:5, 1:25, 1:250)

Binder: B2
binding result [1]: no binding (tested: 20 ug/ml)

Binder: B3
binding result [1]: no binding (tested: 20 ug/ml)

Kd [2]: 6.88 nM
koff [2]: 0.00137 s⁻¹
kon [2]: 199000 M⁻¹ s⁻¹
B4: PD-1 EH13.2A11.17.1 human IgG4 (S228P) (antibody, V domains shown)
VH: EVKLVESGGGLVQPGGSLKLSCAASGFTFSSFTLSWVRQTPEKRLEWVAYISYGGADTYYPDTVKGRFTIFRDNAKNTLYLQMSSLKSEDTARYYCARHGPYGKGDYYAMDYWGQGTSVTVSS
VL: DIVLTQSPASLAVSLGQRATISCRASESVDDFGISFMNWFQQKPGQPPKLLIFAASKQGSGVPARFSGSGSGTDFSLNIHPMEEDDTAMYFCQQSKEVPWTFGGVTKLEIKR
notes: Chimeric: mouse EH13 variable domains on human IgG4 (S228P) and human kappa (Km3); The printed word SignalPeptide_ is a placeholder and is left out; also called LP PD-1 mAb (TP-31850); PD-1 mAb EH13 human IgG4

Kd [2]: 7.1 nM
koff [2]: 0.00154 s⁻¹
kon [2]: 216000 M⁻¹ s⁻¹
B5: PD-1 mAb EH13.2A11.17.1 (antibody, V domains shown)
VH: EVKLVESGGGLVQPGGSLKLSCAASGFTFSSFTLSWVRQTPEKRLEWVAYISYGGADTYYPDTVKGRFTIFRDNAKNTLYLQMSSLKSEDTARYYCARHGPYGKGDYYAMDYWGQGTSVTVSS
VL: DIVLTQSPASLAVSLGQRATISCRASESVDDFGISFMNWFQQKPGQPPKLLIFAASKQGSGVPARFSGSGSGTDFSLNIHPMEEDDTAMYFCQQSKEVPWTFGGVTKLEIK
notes: Parental mouse hybridoma antibody; also called parental control hybridoma
